Measured values taken from PMC9355967.

Columns and labels:
[1] = target: FLAG-tagged full-length AFDN (mouse) (UniProt Q9QZQ1); assay: co-IP; HEK 293T cells co-transfected; anti-FLAG IP on Protein G sepharose, Western blot with anti-GFP or antibodies to the endogenous protein; TX100 buffer (20 mM Tris pH 7.5, 150 mM NaCl, 1% NP-40, 1% Triton X-100, 5 mM MgCl2 for GTPases); also after FastAP phosphatase treatment of lysates; with or without co-expressed GTPases (densitometry in Fig. 4g)
[2] = target: purified AFDN FHA domain Δex9 (mouse); assay: ITC; MicroCal ITC200, 25 °C, 20 mM Tris-HCl pH 7.5, 150 mM NaCl, 1 mM DTT

FLAG-tagged full-length AFDN (mouse), sequence (Q9QZQ1 whole entry, the tested form may be a part): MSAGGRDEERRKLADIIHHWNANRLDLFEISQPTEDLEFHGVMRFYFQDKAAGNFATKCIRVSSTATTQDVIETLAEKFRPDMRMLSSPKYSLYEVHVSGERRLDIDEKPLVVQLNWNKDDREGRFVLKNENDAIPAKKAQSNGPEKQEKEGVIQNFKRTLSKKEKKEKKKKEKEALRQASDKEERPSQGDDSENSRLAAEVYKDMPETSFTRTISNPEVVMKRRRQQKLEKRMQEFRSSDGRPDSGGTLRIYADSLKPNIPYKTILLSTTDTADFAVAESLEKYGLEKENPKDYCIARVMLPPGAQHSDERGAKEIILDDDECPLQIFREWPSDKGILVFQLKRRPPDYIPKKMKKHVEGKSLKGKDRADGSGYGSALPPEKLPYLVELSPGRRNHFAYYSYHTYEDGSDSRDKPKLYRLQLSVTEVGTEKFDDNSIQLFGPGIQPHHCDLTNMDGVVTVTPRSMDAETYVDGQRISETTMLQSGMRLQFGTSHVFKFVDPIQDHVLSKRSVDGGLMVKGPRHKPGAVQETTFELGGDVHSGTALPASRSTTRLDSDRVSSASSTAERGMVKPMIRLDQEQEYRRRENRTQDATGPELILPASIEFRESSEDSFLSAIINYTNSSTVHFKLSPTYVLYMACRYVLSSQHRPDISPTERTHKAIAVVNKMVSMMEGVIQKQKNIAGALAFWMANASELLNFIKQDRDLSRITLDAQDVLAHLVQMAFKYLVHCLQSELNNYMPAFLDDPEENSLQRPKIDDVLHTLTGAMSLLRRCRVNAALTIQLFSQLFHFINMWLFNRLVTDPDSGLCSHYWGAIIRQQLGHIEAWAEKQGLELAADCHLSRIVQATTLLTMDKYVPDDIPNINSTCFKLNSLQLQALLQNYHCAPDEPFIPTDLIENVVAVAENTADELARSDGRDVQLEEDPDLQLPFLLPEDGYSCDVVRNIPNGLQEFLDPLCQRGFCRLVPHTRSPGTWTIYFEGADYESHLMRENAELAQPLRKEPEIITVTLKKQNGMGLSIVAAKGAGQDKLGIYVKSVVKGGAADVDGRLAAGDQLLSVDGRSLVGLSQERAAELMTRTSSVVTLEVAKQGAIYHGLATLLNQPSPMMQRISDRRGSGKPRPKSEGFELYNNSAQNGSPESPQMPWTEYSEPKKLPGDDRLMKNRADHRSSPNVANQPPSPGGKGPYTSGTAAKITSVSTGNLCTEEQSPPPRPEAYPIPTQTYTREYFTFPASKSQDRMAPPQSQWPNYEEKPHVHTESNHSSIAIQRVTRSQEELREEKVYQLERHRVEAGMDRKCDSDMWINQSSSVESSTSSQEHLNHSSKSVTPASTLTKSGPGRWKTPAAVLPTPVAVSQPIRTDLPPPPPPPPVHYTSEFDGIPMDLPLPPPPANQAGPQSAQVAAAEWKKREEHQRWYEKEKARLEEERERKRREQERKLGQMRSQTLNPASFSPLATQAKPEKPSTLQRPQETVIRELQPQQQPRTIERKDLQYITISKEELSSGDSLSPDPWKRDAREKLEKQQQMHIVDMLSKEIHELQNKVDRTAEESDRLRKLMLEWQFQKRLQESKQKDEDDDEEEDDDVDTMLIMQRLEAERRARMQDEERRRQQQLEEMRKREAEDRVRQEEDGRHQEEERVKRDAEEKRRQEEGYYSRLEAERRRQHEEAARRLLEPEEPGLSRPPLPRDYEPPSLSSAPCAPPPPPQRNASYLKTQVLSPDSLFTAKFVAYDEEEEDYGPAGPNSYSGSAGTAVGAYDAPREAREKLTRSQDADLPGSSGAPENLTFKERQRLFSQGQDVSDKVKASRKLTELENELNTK
purified SCRIB PDZ1 domain (718-820), sequence (Q14160 718-820): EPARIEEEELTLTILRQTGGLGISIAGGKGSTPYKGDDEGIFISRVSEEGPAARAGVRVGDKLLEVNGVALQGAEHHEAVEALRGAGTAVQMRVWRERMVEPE

Row | Substance | fold increase of SCRIB co-precipitated with AFDN, KRAS-G12V co-expressed, against wild-type KRAS [1] [fold] | fold increase of SCRIB co-precipitated with AFDN, RAP1B-G12V co-expressed, against wild-type KRAS [1] [fold] | fold increase of SCRIB co-precipitated with AFDN, RAP2C-G12V co-expressed, against wild-type KRAS [1] [fold] | Kd [2] [µM]
1 | EGFP-tagged full-length SCRIB (from UniProt Q14160 1-1655) (natural protein) | 8 | 1.7 | 2.6 | –
2 | purified SCRIB PDZ1 domain (718-820) (from UniProt Q14160 718-820) (domain or fragment) | – | – | – | 22.9
